Measurements as given in patent publication US20200139362A1, “Proto-Antigen-Presenting Synthetic Surfaces, Activated T Cells, and Uses Thereof” (Berkeley Lights, Inc., priority 2018, published 2020).
Square brackets hold non-standard residues; d marks the D form. Ends that are not written are not given here.

Tests used:
HLA-A*02:01 [1] = target: T1, HLA-A*02:01 (Homo sapiens, UniProt P04439, D140Y/D185E/D98H/E176V/E277Q/G131W/G231S/I119V/I121R/I166T/I218V/L300P/L318F/N151K/N90K/P208A/P217A/Q86G/Q94H/R138H/R169H/T345S); experiment: Peptide switching (exchange) on peptide-HLA-A*02:01 complex, anti-DNP antibody flow cytometry; type: binding; conditions: 20 micromolar peptide, 1 micromolar HLA-A*02:01 with DNP-labelled initial peptide LMYAKRAFV, 1 mM Glycl-Methionine, room temperature 4 hours; relative to control peptide […] set as 100%
Protocol: To test binding of Immunogenic and Non-Immunogenic peptides to an MHC Class I complex, a peptide-HLA-A*02:01 complex with an initial peptide LMYAKRAFV (SEQ ID NO: 4) in the peptide binding groove was purchased. The initial peptide included a dinitrophenyl (DNP) moiety conjugated to the lysine at position 5. Two peptide antigens were then tested for their ability to bind to the MHC Class I complex: SLYSYFQKV (SEQ ID NO: 5) derived from SLC45A2 and SLLPIMwQLY (SEQ ID NO: 6) derived from TCL1. The peptides were resuspended in DMSO to 5 mg/mL. The peptides were then further diluted ten-fold in PBS. […]
Samples of unswitched peptide-MHC and switched peptide-MHC were then captured on Streptavidin-coated DynaBeads (ThermoFisher). […] The peptide-MHC beads were then stored at 4° C. until they were analyzed for peptide exchange.
To quantify peptide exchange, a FITC-conjugated anti-DNP antibody specific for the DNP-conjugated initial peptide was added to a sample of each captured peptide-MHC. […] The staining for pre-assembled peptide and intact pHLA complexes were detected by Flow Cytometry on a FACSCelesta with High-Throughput Sampler (BD Biosciences). […] Approximately 5,000 bead events were recorded for each sample. The Median Fluorescence Intensity (MFI) in the APC and FITC channels of each sample was then recorded. […]

HLA-A*02:01 [2] = target: T1, HLA-A*02:01; experiment: Peptide binding and stability of pMHC complexes under culture conditions (W6/32 antibody, flow cytometry); conditions: pMHC on Streptavidin DynaBeads in T Cell Culture Media at 37° C.; exponential decay fit of APC MFI
Protocol: To assess the stability of the pMHC Class I-peptide antigen complexes under the conditions that are used to culture T Cells, pMHC Class I complexes were first bound to beads. Biotinylated HLA-A*02:01 complexes loaded with either SLYSYFQKV (SEQ ID NO: 5) or SLLPIMwQLY (SEQ ID NO: 6) peptides were diluted to 0.83 micrograms/mL in Assay Buffer (PBS with 2 mM EDTA and 0.1% Bovine Serum Albumin). To 0.6 mL of the pMHC solutions in microcentrifuge tubes, 10^7 Streptavidin-coated DynaBeads (M-280, ThermoFisher) were added. The beads were mixed in the pMHC solution for 4 minutes at 2,000 rpm on a ThermoMixer (Eppendorf). The pMHC-beads were then captured on a magnetic rack, and the solution containing unbound pMHC removed by aspiration. 1 mL of Assay Buffer was added to the tubes, and then aspirated. The beads were then resuspended in 0.1 mL of Assay Buffer. The beads were then stored at 4° C. until use. […]
Antibody binding to the beads was then detected on a FACSCelesta with High-Throughput Sampler (BD Biosciences). […] Approximately 25,000 bead events were recorded for each sample. The Median Fluorescence Intensity (MFI) in the APC channel for the pHLA-beads in each sample was then recorded. […] The half-lives for the pHLA complexes were then calculated from the fitted decay constant.

| Substance | percent peptide switching (HLA-A*02:01 [1]) | half-life of peptide-HLA-A*02:01 complex (HLA-A*02:01 [2]) |
| --- | --- | --- |
| SLLPIMwQLY (SLLPIM[dW]QLY) [TCL1-derived peptide, non-immunogenic peptide antigen derived from TCL1] | about 90% | about 0.5 hours |
| SLYSYFQKV (SLC45A2-derived peptide) [immunogenic peptide antigen derived from SLC45A2] | about 99% | about 17 hours |
